Test results published in patent US12427188B2, “Pyocyanine demethylases and related phenazine degrading agents compositions, methods and systems for interfering with viability of bacteria” (priority 2020, dated 2025).
Entries after “also recorded” stand apart in the source; their conditions may differ.

Experiments:
Pseudomonas aeruginosa = assay: Crystal violet biofilm assay; type: cell-based; conditions: 24 h incubation, protein added from the beginning
Protocol: Crystal violet assay. Pseudomonas aeruginosa grown overnight in LB were inoculated (1.5%, v/v) and grown for 24 h at 37° C. in 96-well round bottom plates in minimal medium (100 μL) with arginine (40 mM) as the sole carbon source. PodA was added with cells simultaneously and was present during growth and biofilm development. Planktonic cells were removed and attached cells were quantified with crystal violet staining (125 μL. 0.1% w/v), followed by washes with water and de-staining with an acetic acid (30%, v/v) mixture in water. Crystal violet was measured using a SpectraMax® M3 Microplate Reader (Molecular Devices) at an absorbance of 550 nm. Details of procedure were published previously (28)[43].

[1] = Protein yield of PodA variants purified from inclusion bodies of overexpression culture; conditions: purified from inclusion bodies, per L of E. coli overexpression culture
Protocol: Protein overproduction and purification of soluble and inclusion body fractions. Plasmids coding for proteins of interest were transformed into E. coli BL21 […]. […]. Cultures were grown at 37° C. with shaking to an optical density of 0.4 (OD600 nm) and plasmid expression was induced with IPTG (50 μM) and shaken overnight at 16° C. Cells were harvested by centrifugation at 5,000×g for 10 min in a Beckman Coulter Avanti J-20 XOI refrigerated centrifuge using a JLA-8.1000 rotor at 4° C. Cell pellets were stored at −80° C. until used.
For purification of PodA from inclusion bodies, the pellets remaining following lysis and centrifugation at 40,000×g were resuspended in 20 mL of detergent buffer [50 mM HEPES (pH 7.5) and 1% Triton-X (v/v)] using a Bio-gen PRO200 cell homogenizer (PRO Scientific). Sample was spun for 15 min at 40,000×g at 4° C. in a Beckman Coulter Avanti centrifuge with a JA-25.50 rotor. Supernatant was discarded and the remaining cell pellet was resuspended in 5 mL of buffer [50 mM HEPES (pH 7.5), 500 mM NaCl] using a cell homogenizer, supplemented with lysozyme (200 μg mL^−1), and incubated for 10 min. Volume was increased to 20 mL with HEPES (50 mM, pH 7) and sample was spun for 40,000×g at 4° C. for 15 min. Supernatant was discarded and pellet was homogenized in 10 mL of denaturing buffer 50 mM HEPES (pH 7.5), 500 mM NaCl, and 8M urea) and incubating rocking overnight. The sample was spun at for 40,000×g at 25° C. for 30 min and supernatant was incubated with 1 mL HisPur Ni-NTA resin (Thermo Fisher Scientific) on a rocking platform for 10 min. Beads were allowed to settle without shaking, supernatant was discarded, and resin was pipetted into glass gravity columns. Resin was washed with 15 mL of denaturing buffer, followed by an elution with denaturing buffer supplemented with imidazole (500 mM). Fractions were analyzed by SDS-PAGE and those containing protein were combined into SnakeSkin 3.5 K MWCO dialysis tubing (Thermo Fisher Scientific). Urea was slowly dialyzed out in HEPES (50 mM, pH 7.5) and NaCl (500 mM) by lowing urea concentrations by 1 M increments. Each step was dialyzed at RT for 30 min. Protein was dialyzed in HEPES (50 mM, pH 7.5), NaCl (500 mM), and imidazole (20 mM) overnight at 4° C. The following day, protein was cleaved for 3 h at 25° C. with TEV protease (1:50 mg:mg ratio of TEV to PodA). The sample was applied to a HisPur gravity column and cleaved protein in the flow thru was confirmed by SDS-PAGE. Cleaved PodA protein was then dialyzed for storage for 3 h at 4° C. in HEPES (50 mM pH 7.5), NaCl (250 mM) and finally in HEPES (50 mM, pH 7.5), NaCl (100 mM), and glycerol (20%, v/v). Protein concentration was established on a NanoDrop™ using the extinction coefficient and MW of each protein. Protein was drop frozen in LN2 and stored at −80° C. until use.

[2] = Continuous spectrophotometric PYO demethylation assay (specific activity and kinetics of PodA); type: biochemical; conditions: for Activity over range of pH: PodA10 3 μM
Protocol: Specific activity and kinetics of PodA. To determine specific activity and kinetic parameters of PodA for PYO, a continuous spectrophotometric assay monitoring the absorbance of PYO (690 nm) was utilized. Briefly, assays were performed at 25° C. in 100 μL reaction volumes in 96-well plates and reactions were monitored at 690 nm over 10 min. Reaction mixtures contained Phosphate buffer (50 mM, pH 6.0), ethylene glycol (1%, v/v), protein (3 μM) and substrate (for specific activity, 100 μM, for kinetics, varying). Data were acquired using the SpectraMax® M3 Microplate Reader (Molecular Devices) using the Soft Max Pro software every 10 s over 10 min. Path lengths for each well were calculated using Soft Max Pro endpoint readings and slopes were corrected for path lengths of 1 cm.
Specific activity was calculated from the slope of the linear range of (ΔOD690 min^−1) using Beer's Law (A=εcl) with a path length of 1 cm and the molar extinction coefficient of PYO (4,130 M^−1 cm^−1). Equation was solved for c, giving specific activity in nmol min^−1 mg^−1 of PodA. For kinetic parameters, graphs of initial velocity (μM s^−1) versus substrate concentration (μM) were plotted using Prism v8 (GraphPad). The Michaelis-Menten kinetics model was used to determine Km and Vmax. The turnover number (kcat) was determined using the following equation: Vmax=kcat[E], where [E] was the concentration of PodA added. All spectrophotometric assays mentioned above were completed thrice, each in technical triplicate with a representative data set shown. Error bars represent standard deviation as calculated by Prism v8 (GraphPad). Standard deviation for kcat and Kcat KM^−1 was calculated using standard formulas for propagation of error.

B1: PodA10: Designed PodA41-162 variant: A53N, I73T, A87V, M99V, A129T; SEQ ID NO: 4 (protein)
chain: MVTMTLDVKNDQVNKHDFGKPGMDVGDMDIFSDTLSVDGKQVGYDGGVCFFTNVTPDNPVTYCELTIHLDAGEIFARSLTPATLAPFTMTITGGTGEYANSKGELTVSGVATPDEKYELKLTK
Question: For B1, which “biofilm attachment (crystal violet)” value (Pseudomonas aeruginosa) is on record?
Answer: biofilm attachment defect that was comparable to that achieved by WT PodA41-162

Question: What about the Yield [1] of the same molecule?
Answer: 5.92 mg/L^−1

Question: What about the “catalytic efficiency in growth medium compared to buffer” value ([2]; LB and SCFM, PodA 3 μM) of the same molecule?
Answer: No change

Question: And the “catalytic efficiency compared with PodA^WT” value ([2]; Michaelis-Menten kinetics, 3 μM protein)?
Answer: slight increase in efficiency

Question: What about the “PYO demethylation activity relative to wild type” value ([2]; PYO 50 μM, PodA variants 3 μM) of the same molecule?
Answer: wild-type activity was maintained

Question: What about the “Activity over range of pH” value ([2]; PYO 100 μM) of the same molecule?
Answer: maintained activity over a large range of pH, with no observable preference between a pH of 5-9

Question: And the “Activity over range of pH” value ([2]; PYO 100 μM, listed as PodA1041-162)?
Answer: maintained activity over a large range of pH, with no observable preference between a pH of 5.5 and 9

Question: What about the “Effect of salts (NaCl and KCl) on activity” value ([2]; cystic fibrosis sputum range, 66 mM Na+, 15 mM K+) of the same molecule?
Answer: not altered

Question: What about the “Effect of slight increase in viscosity (ethylene glycol or glycerol 1% v/v) on activity” value ([2]; pH 6, PodA 3 μM, PYO 100 μM) of the same molecule?
Answer: slight ad-vantage; also recorded: slight advantage
